The assay concerns the target erbB2 (p185erbB2/HER2/neu) on SK-BR-3 cells (human) (UniProt P04626). The assay is described as follows: cell-based or functional assay.

The text below walks through data of US20180057603A1.

anti-erbB2 mAb 4D5 (antibody) showed a foci less than 20 pixels in soft agar (SK-BR-3) of 72%.
